In patent US20140213531A1 (POLYPHOR, published 2014):

B1: Example 168 (peptide)
peptide: XCTASIPPQCY
HELM: PEPTIDE1{[Nle].C.T.A.S.I.P.P.Q.C.Y.[dP].D}$PEPTIDE1,PEPTIDE1,2:R3-10:R3|PEPTIDE1,PEPTIDE1,1:R1-13:R2$$$V2.0
SMILES: CCCC[C@@H]1NC(=O)[C@H](CC(=O)O)NC(=O)[C@H]2CCCN2C(=O)[C@H](Cc2ccc(O)cc2)NC(=O)[C@@H]2CSSC[C@H](NC1=O)C(=O)N[C@@H]([C@@H](C)O)C(=O)N[C@@H](C)C(=O)N[C@@H](CO)C(=O)N[C@@H]([C@@H](C)CC)C(=O)N1CCC[C@H]1C(=O)N1CCC[C@H]1C(=O)N[C@@H](CCC(N)=O)C(=O)N2
notes: also called Ex. 168
B2: Example 99 (peptide)
peptide: XCTASIPPQCY
HELM: PEPTIDE1{[CCCCCC[C@H](N[*:1])C(=O)[*:2]].C.T.A.S.I.P.P.Q.C.Y.[dP].P}$PEPTIDE1,PEPTIDE1,2:R3-10:R3|PEPTIDE1,PEPTIDE1,1:R1-13:R2$$$V2.0
SMILES: CCCCCC[C@@H]1NC(=O)[C@@H]2CCCN2C(=O)[C@H]2CCCN2C(=O)[C@H](Cc2ccc(O)cc2)NC(=O)[C@@H]2CSSC[C@H](NC1=O)C(=O)N[C@@H]([C@@H](C)O)C(=O)N[C@@H](C)C(=O)N[C@@H](CO)C(=O)N[C@@H]([C@@H](C)CC)C(=O)N1CCC[C@H]1C(=O)N1CCC[C@H]1C(=O)N[C@@H](CCC(N)=O)C(=O)N2
notes: also called Ex. 99
B3: Example 98 (peptide)
peptide: XCTASIPPQCX
HELM: PEPTIDE1{[Nle].C.T.A.S.I.P.P.Q.C.[Phg].[dP].P}$PEPTIDE1,PEPTIDE1,2:R3-10:R3|PEPTIDE1,PEPTIDE1,1:R1-13:R2$$$V2.0
SMILES: CCCC[C@@H]1NC(=O)[C@@H]2CCCN2C(=O)[C@H]2CCCN2C(=O)[C@H](c2ccccc2)NC(=O)[C@@H]2CSSC[C@H](NC1=O)C(=O)N[C@@H]([C@@H](C)O)C(=O)N[C@@H](C)C(=O)N[C@@H](CO)C(=O)N[C@@H]([C@@H](C)CC)C(=O)N1CCC[C@H]1C(=O)N1CCC[C@H]1C(=O)N[C@@H](CCC(N)=O)C(=O)N2
notes: also called Ex. 98
B4: Example 102 (peptide)
peptide: XCTASIPPQCY
HELM: PEPTIDE1{[CCCCCCCC[C@H](N[*:1])C(=O)[*:2]].C.T.A.S.I.P.P.Q.C.Y.[dP].P}$PEPTIDE1,PEPTIDE1,2:R3-10:R3|PEPTIDE1,PEPTIDE1,1:R1-13:R2$$$V2.0
SMILES: CCCCCCCC[C@@H]1NC(=O)[C@@H]2CCCN2C(=O)[C@H]2CCCN2C(=O)[C@H](Cc2ccc(O)cc2)NC(=O)[C@@H]2CSSC[C@H](NC1=O)C(=O)N[C@@H]([C@@H](C)O)C(=O)N[C@@H](C)C(=O)N[C@@H](CO)C(=O)N[C@@H]([C@@H](C)CC)C(=O)N1CCC[C@H]1C(=O)N1CCC[C@H]1C(=O)N[C@@H](CCC(N)=O)C(=O)N2
B5: Example 85 (peptide)
peptide: XCTASXPPQCY
HELM: PEPTIDE1{[Nle].C.T.A.S.[CC(C)(C)C[C@H](N[*:1])C(=O)[*:2]].P.P.Q.C.Y.[dP].P}$PEPTIDE1,PEPTIDE1,2:R3-10:R3|PEPTIDE1,PEPTIDE1,1:R1-13:R2$$$V2.0
SMILES: CCCC[C@@H]1NC(=O)[C@@H]2CCCN2C(=O)[C@H]2CCCN2C(=O)[C@H](Cc2ccc(O)cc2)NC(=O)[C@@H]2CSSC[C@H](NC1=O)C(=O)N[C@@H]([C@@H](C)O)C(=O)N[C@@H](C)C(=O)N[C@@H](CO)C(=O)N[C@@H](CC(C)(C)C)C(=O)N1CCC[C@H]1C(=O)N1CCC[C@H]1C(=O)N[C@@H](CCC(N)=O)C(=O)N2
notes: also called Ex. 85
B6: Example 122 (peptide)
peptide: XCTASIPPQCY
HELM: PEPTIDE1{[Nle].C.T.A.S.I.P.P.Q.C.Y.[dP].F}$PEPTIDE1,PEPTIDE1,2:R3-10:R3|PEPTIDE1,PEPTIDE1,1:R1-13:R2$$$V2.0
SMILES: CCCC[C@@H]1NC(=O)[C@H](Cc2ccccc2)NC(=O)[C@H]2CCCN2C(=O)[C@H](Cc2ccc(O)cc2)NC(=O)[C@@H]2CSSC[C@H](NC1=O)C(=O)N[C@@H]([C@@H](C)O)C(=O)N[C@@H](C)C(=O)N[C@@H](CO)C(=O)N[C@@H]([C@@H](C)CC)C(=O)N1CCC[C@H]1C(=O)N1CCC[C@H]1C(=O)N[C@@H](CCC(N)=O)C(=O)N2
B7: Example 179 (peptide)
peptide: XCTASIPPQCY
HELM: PEPTIDE1{[Nle].C.T.A.S.I.P.P.Q.C.Y.[dP].P}$PEPTIDE1,PEPTIDE1,2:R3-10:R3|PEPTIDE1,PEPTIDE1,1:R1-13:R2$$$V2.0
SMILES: CCCC[C@@H]1NC(=O)[C@@H]2CCCN2C(=O)[C@H]2CCCN2C(=O)[C@H](Cc2ccc(O)cc2)NC(=O)[C@@H]2CSSC[C@H](NC1=O)C(=O)N[C@@H]([C@@H](C)O)C(=O)N[C@@H](C)C(=O)N[C@@H](CO)C(=O)N[C@@H]([C@@H](C)CC)C(=O)N1CCC[C@H]1C(=O)N1CCC[C@H]1C(=O)N[C@@H](CCC(N)=O)C(=O)N2
B8: Example 144 (peptide)
peptide: XCTASIPPQCX
HELM: PEPTIDE1{[Nle].C.T.A.S.I.P.P.Q.C.[O=C([C@H](Cc1ccccc1Cl)N[*:1])[*:2]].[dP].P}$PEPTIDE1,PEPTIDE1,2:R3-10:R3|PEPTIDE1,PEPTIDE1,1:R1-13:R2$$$V2.0
SMILES: CCCC[C@@H]1NC(=O)[C@@H]2CCCN2C(=O)[C@H]2CCCN2C(=O)[C@H](Cc2ccccc2Cl)NC(=O)[C@@H]2CSSC[C@H](NC1=O)C(=O)N[C@@H]([C@@H](C)O)C(=O)N[C@@H](C)C(=O)N[C@@H](CO)C(=O)N[C@@H]([C@@H](C)CC)C(=O)N1CCC[C@H]1C(=O)N1CCC[C@H]1C(=O)N[C@@H](CCC(N)=O)C(=O)N2
B9: Example 137 (peptide)
peptide: XCTASIPPQCF
HELM: PEPTIDE1{[Nle].C.T.A.S.I.P.P.Q.C.F.[dP].P}$PEPTIDE1,PEPTIDE1,2:R3-10:R3|PEPTIDE1,PEPTIDE1,1:R1-13:R2$$$V2.0
SMILES: CCCC[C@@H]1NC(=O)[C@@H]2CCCN2C(=O)[C@H]2CCCN2C(=O)[C@H](Cc2ccccc2)NC(=O)[C@@H]2CSSC[C@H](NC1=O)C(=O)N[C@@H]([C@@H](C)O)C(=O)N[C@@H](C)C(=O)N[C@@H](CO)C(=O)N[C@@H]([C@@H](C)CC)C(=O)N1CCC[C@H]1C(=O)N1CCC[C@H]1C(=O)N[C@@H](CCC(N)=O)C(=O)N2
notes: also called Ex. 137
B10: Example 95 (peptide)
peptide: XCTASIPPQCX
HELM: PEPTIDE1{[Nle].C.T.A.S.I.P.P.Q.C.[O=C([C@H](Cc1ccc2ccccc2c1)N[*:1])[*:2]].[dP].P}$PEPTIDE1,PEPTIDE1,2:R3-10:R3|PEPTIDE1,PEPTIDE1,1:R1-13:R2$$$V2.0
SMILES: CCCC[C@@H]1NC(=O)[C@@H]2CCCN2C(=O)[C@H]2CCCN2C(=O)[C@H](Cc2ccc3ccccc3c2)NC(=O)[C@@H]2CSSC[C@H](NC1=O)C(=O)N[C@@H]([C@@H](C)O)C(=O)N[C@@H](C)C(=O)N[C@@H](CO)C(=O)N[C@@H]([C@@H](C)CC)C(=O)N1CCC[C@H]1C(=O)N1CCC[C@H]1C(=O)N[C@@H](CCC(N)=O)C(=O)N2
notes: also called Ex. 95
B11: Example 97 (peptide)
peptide: XCTASIPPQCX
HELM: PEPTIDE1{[Nle].C.T.A.S.I.P.P.Q.C.[Cha].[dP].P}$PEPTIDE1,PEPTIDE1,2:R3-10:R3|PEPTIDE1,PEPTIDE1,1:R1-13:R2$$$V2.0
SMILES: CCCC[C@@H]1NC(=O)[C@@H]2CCCN2C(=O)[C@H]2CCCN2C(=O)[C@H](CC2CCCCC2)NC(=O)[C@@H]2CSSC[C@H](NC1=O)C(=O)N[C@@H]([C@@H](C)O)C(=O)N[C@@H](C)C(=O)N[C@@H](CO)C(=O)N[C@@H]([C@@H](C)CC)C(=O)N1CCC[C@H]1C(=O)N1CCC[C@H]1C(=O)N[C@@H](CCC(N)=O)C(=O)N2
notes: also called Ex. 97

biological target: T1, Trypsin, Iodination grade, from human pancreas (human, UniProt P07477 24-247); test: enzyme inhibition, pNA substrate
T1 construct: purified natural enzyme, bought

For B1, which “% inhibition at 100 µM” value is on record?
The value was 12.8%.

How did the “% inhibition at 100 µM” value turn out when B2 was run?
Its value is 30.5%.

Which “% inhibition at 100 µM” value does the source give for B3 here?
The value was 0%.

With B4 as the binder, how does the “% inhibition at 100 µM” value read?
The value was 0%.

With B5 as the binder, how does the “% inhibition at 100 µM” value read?
The value was 0%.

B6 was tested. Which “% inhibition at 100 µM” value did it give?
The value was 19%.

biological target: T2, Chymotrypsin, from human pancreas (human, UniProt P17538 19-263); test: enzyme inhibition, pNA substrate
T2 construct: purified natural enzyme, bought
T2 sequence (P17538 19-263): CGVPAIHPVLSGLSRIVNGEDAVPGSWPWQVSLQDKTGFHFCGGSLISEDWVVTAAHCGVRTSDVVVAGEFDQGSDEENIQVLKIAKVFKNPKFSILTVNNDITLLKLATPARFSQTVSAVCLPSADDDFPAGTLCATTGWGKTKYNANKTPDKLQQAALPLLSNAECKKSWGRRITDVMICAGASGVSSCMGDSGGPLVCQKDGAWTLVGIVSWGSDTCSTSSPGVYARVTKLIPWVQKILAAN

For B1, which “% inhibition at 100 µM” value is on record?
The value was 72.9%.

How did the “% inhibition at 100 µM” value turn out when B7 was run?
Its value is 76%.

With B8 as the binder, how does the “% inhibition at 100 µM” value read?
Its value is 80.6%.

With B9 as the binder, how does the “% inhibition at 100 µM” value read?
The value was 68.7%.

biological target: T3, Chymase, from human skin (human, UniProt P23946 22-247); test: enzyme inhibition, pNA substrate
T3 construct: purified natural enzyme, bought
T3 sequence (looked up): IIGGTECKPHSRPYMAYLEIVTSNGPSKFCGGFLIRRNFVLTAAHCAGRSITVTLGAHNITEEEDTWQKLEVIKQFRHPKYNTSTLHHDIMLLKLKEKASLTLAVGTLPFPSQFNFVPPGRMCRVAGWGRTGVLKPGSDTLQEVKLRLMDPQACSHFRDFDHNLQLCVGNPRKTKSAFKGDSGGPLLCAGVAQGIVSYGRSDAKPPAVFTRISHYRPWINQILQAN

With B10 as the binder, how does the “% inhibition at 100 µM” value read?
Its value is 0%.

For B8, which “% inhibition at 100 µM” value is on record?
Its value is 0%.

Which “% inhibition at 100 µM” value does the source give for B11 here?
The value was 0%.

How did the “% inhibition at 100 µM” value turn out when B2 was run?
Its value is 0%.

For B9, which “% inhibition at 100 µM” value is on record?
The value was 0%.

How did the “% inhibition at 100 µM” value turn out when B3 was run?
Its value is 0%.

With B4 as the binder, how does the “% inhibition at 100 µM” value read?
The value was 0%.

biological target: Thrombin, from Human Plasma, high activity (human, UniProt P00734 328-622); test: enzyme inhibition, pNA substrate

With B1 as the binder, how does the “% inhibition at 100 µM” value read?
Its value is 0%.

With B10 as the binder, how does the “% inhibition at 100 µM” value read?
The value was 0%.

With B11 as the binder, how does the “% inhibition at 100 µM” value read?
The value was 11.6%.

How did the “% inhibition at 100 µM” value turn out when B2 was run?
The value was 0%.

B9 was tested. Which “% inhibition at 100 µM” value did it give?
Its value is 0%.

For B5, which “% inhibition at 100 µM” value is on record?
The value was 12.6%.

With B6 as the binder, how does the “% inhibition at 100 µM” value read?
Its value is 0%.

biological target: T4, Coagulation Factor Xa, from uman plasma (human, UniProt P00742 41-179; P00742 235-488, limits assumed); test: enzyme inhibition, pNA substrate
T4 construct: purified natural enzyme, bought; also called FXa
T4 sequence (P00742 41-179 limits assumed, chain 1 of 2): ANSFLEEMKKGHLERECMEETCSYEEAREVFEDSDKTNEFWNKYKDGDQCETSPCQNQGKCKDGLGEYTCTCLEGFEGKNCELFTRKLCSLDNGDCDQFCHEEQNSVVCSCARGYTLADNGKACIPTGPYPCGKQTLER
T4 sequence (P00742 235-488 limits assumed, chain 2 of 2): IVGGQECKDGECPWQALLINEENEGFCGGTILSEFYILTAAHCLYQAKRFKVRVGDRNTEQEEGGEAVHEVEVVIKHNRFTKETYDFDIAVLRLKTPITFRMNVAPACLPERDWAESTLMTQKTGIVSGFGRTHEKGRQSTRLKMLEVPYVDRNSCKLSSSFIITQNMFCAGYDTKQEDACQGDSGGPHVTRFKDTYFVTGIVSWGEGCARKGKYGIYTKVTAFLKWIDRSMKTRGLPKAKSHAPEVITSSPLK

Which “% inhibition at 100 µM” value does the source give for B10 here?
The value was 11.3%.

For B8, which “% inhibition at 100 µM” value is on record?
Its value is 0%.

B2 was tested. Which “% inhibition at 100 µM” value did it give?
Its value is 0%.

Which “% inhibition at 100 µM” value does the source give for B3 here?
The value was 0%.

How did the “% inhibition at 100 µM” value turn out when B4 was run?
The value was 0%.

B5 was tested. Which “% inhibition at 100 µM” value did it give?
Its value is 25.6%.

For B6, which “% inhibition at 100 µM” value is on record?
Its value is 19.6%.

biological target: T5, Urokinase from human urine (human, UniProt P00749 21-431, limits assumed); test: enzyme inhibition, pNA substrate
T5 construct: purified natural enzyme, bought

With B10 as the binder, how does the “% inhibition at 100 µM” value read?
Its value is 10.3%.

How did the “% inhibition at 100 µM” value turn out when B11 was run?
Its value is 11.9%.

With B2 as the binder, how does the “% inhibition at 100 µM” value read?
The value was 17.4%.

B3 was tested. Which “% inhibition at 100 µM” value did it give?
Its value is 0%.

Which “% inhibition at 100 µM” value does the source give for B6 here?
The value was 11.1%.

biological target: T6, Tryptase, from human lung (human, UniProt Q15661 31-275, limits assumed); test: enzyme inhibition, pNA substrate
T6 construct: purified natural enzyme, bought
T6 sequence (Q15661 31-275 limits assumed): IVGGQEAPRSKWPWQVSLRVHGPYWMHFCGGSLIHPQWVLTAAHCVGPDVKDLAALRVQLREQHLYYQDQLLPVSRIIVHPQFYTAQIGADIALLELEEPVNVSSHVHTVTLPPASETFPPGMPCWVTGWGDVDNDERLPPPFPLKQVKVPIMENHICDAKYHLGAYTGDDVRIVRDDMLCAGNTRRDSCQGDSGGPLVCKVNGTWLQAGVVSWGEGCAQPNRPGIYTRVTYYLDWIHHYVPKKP

Which “% inhibition at 100 µM” value does the source give for B10 here?
Its value is 0%.

With B7 as the binder, how does the “% inhibition at 100 µM” value read?
The value was 0%.

B8 was tested. Which “% inhibition at 100 µM” value did it give?
Its value is 0%.

Which “% inhibition at 100 µM” value does the source give for B11 here?
The value was 0%.

For B2, which “% inhibition at 100 µM” value is on record?
Its value is 0%.

For B3, which “% inhibition at 100 µM” value is on record?
The value was 0%.

With B4 as the binder, how does the “% inhibition at 100 µM” value read?
The value was 0%.
